Experimental data reported in a protein production outcome set (Wang et al. 2014).

Assay: label from the status in PepcDB records

Sequence | protein production
VWRQYASRALQELGAGKRAIHDVADLTRGSLRIAVTPTFTSYFIGPLMADFYARYPSITLQLQEMSQEKIEDMLCRDELDVGIAFAPVHSPELEAIPLLTESLALVVAQHHPLAVHEQVALSRLHDEKLVLLSAEFATREQIDHYCEKAGLHPQVVIEANSISAVLELIRRTSLSTLLPAAIATQHDGLKAISLAPPLLERTAVLLRRKNSWQTAAAKAFLHMALDKCAVVGGNESR | not failed
VYLDFENHIKEIQNEIELALIRGDEDAKEILEKRLDKEVKSIYSNLTDFQKLQLARHPDRPYAMDYIDLILKDKYEVFGDRHYNDDKAIVCFVGKIDNVPVVVIGEEKGRGTKNKLLRNFGMPNPCGYRKALKMAKFAEKFNL | failed
WLDLAPSTQVDTETSINVLSDIEFTLNGIYSTMQSSDAYSGRLVYYGDVTGDDMQAVSSTKRTGNYYRFNFTKDNGPSSHWSYLYSIIQNCNLILMNVDKLSIDEDETEYKNDLKGQALAIRGMALFDLTRIFGYPYLKDNGASLGVPIVKELSTIDSKPARNTVAECYTEIISDLKNSTELLSGDFNKGKVNRWAAMTLLSRVYLYKGEYNEALTMAENAIKGAEKEGYALWTNEEYPTAWGNDASASNPGEILFEIVNLTTDSPGKESMGYLNSYNGYDDMCITCSFYQLLKKDPKDVRLKILSFDKKYYAYVNKYQPQQGENITDANIPLIRLSEAYLNAAEAAVQTGDNAKAVKYLNSIVQRANPENSVEGKTLTLENVLDERRKELVAEGHRMYDVIRNGMTVKRIDVKDSDINKTKHNTAYMEYDWNFHKILLPIPKKEMDANPNMKQNPGYVD | not failed
WQPATERLQVTYLGKVSTTGMQFLSGCTEKPVIELWKKHTLAREDVFPANALLEIRPFQVWLHHLDHKGEATVHMDTFQVARIAYCTADHNVSPNIFAWVYREINDDLSYQMDCHAVECESKLEAKKLAHAMMEAFRKTFHSMKSDGRIH | failed
WRRLVEEAARRDPDDVRLLVHVASDVWNFVDEHCTLVADAYRHVERQLAWRRENRLRLMTTALLDGTTRIADLPDVATALDLPEQGRYAVVSVAVAHPAGHVGTQLLSVPPGMRALWHTGTDVEHGIVHLGEREPKDLVDRVTVPIGARVGISRAVDGLAAVGDARRLAETALRACPESGGTVLLDEHLPAALLVSAPALGTALVNRVLGPLLSLDPSDRDLLLDTVSAWLDNDGSAQRAASRLYCHRNTVLNRLRRFEQLTGRCLTRPADVVDTSLALTARRL | failed
WRTIFNAEPECVMIVATDGTLLDINPAGVAAIEADSVGAVIGKRVYSLVVPECQQAFRQLNESVCQGKQGTLEFEIITCRGNRRWMATHAVPVRNEKDGNLVQLSI | failed
WSLQPLADMSAAEFRDWQVLLENRTGVVLNEQRRTFLQASLTARMRELGIGDYHSYYRQVTDGPRGAVEWATLLDRLTVQETRFFRHPPSFELLERYLGERLRREGMPRPWALWSVGCSSGEEPYSLAMCAAQVLRGQEREDFFGVTGTDISLHALQRARQANYPARKLEQLEAGLVERYCERQADGSFSVKTILTERVCCARLNVLDLAKAPWSGMDVIFCQNLLIYFRRWRRREILNRLAERLAPGGLLVIGVGEVVDWSHPELEPVADERVL | failed
WSYEHLHLTNRIKLLYAPTFRDNELGMAKLHLDIAEMKQALGNEYQLILKLHPSISNDLEKLDDDFVIYVDKETPIETLLPVVDILITDYSSIPFEFALLQKPMIFFTYDLTEYNNARGLSDGFLETIPGPHVFTTTELIEVIQNNTFDLEKVRLFAEKWNKYSDGFSSERFVSFLKEQLEK | failed
YANEEKGLEIAQERKARDEGWGDSIATMEMILKNAQGESSTRLMRLKSLEVEGDGDKGLTIFDQPRDVTGTAFLNHSHTIGADDQWLYLPALKRVKRISSRNKSGPFMGSEFAYEDLSSFEIEKYRFNHLKDEKFNGQDVFVLEQIPTDKNSGYTKQVVWLDKAHYRPLKVEFYDRKGALLKTLTFANYKQYLDKYWRAHTMAMTNHQTGKSTELNTSDLRFQTGLEENDFNKNVLKRVK | failed
YETIIIHRHQRPDPDAIGSQVGLAELLRASFPEKNIYQVGGPVEGLEFLAEMDVITDDVYRGALVIVTDTANAPRISDARFSLGDQLIKIDHHPNDEPYGDLVWVNTNASSCSEIIVDFWQQHLAELTMTDNAARLLYAGIVGDTGRFLYPSTSAHTLAVAAQLRTFNFNAADLNRELDQMP | not failed
YHDETAQDEEDRVLIHFNVRDIKIGPECHDVQPPEGRSRDGLLTVNLREGGRLHLCAETKDDALAWKTALLEANSTPVRVYSPYQDYYEVVPPNAHEATYVRSYYGPPYAGPGVTHVIVREDPCYSAGAPLAMGMLAGAATGAALGSLMWSPCWF | failed
YKGKNLIMIQVEALQQFVINSKVENQEITPNLNRWINKSLYFNNFFYQVSSGNTSDAEFLANNSFYPAASGAAYYLYAGNTYSSLAKEMNDNNYYTAVLHGYKEGFWNRNVMYKAEKFKDFFGEKSFNINENVGLGLSDKSFLNQSFNKLKSFSSPYYSFIITLSSHYPYDDTKGYGDFNVGDYEGTLLGNYLKGIHYTDAQLGTFLDKLEKSGIMDNSVVILYGDHYAIPKDKINDLYDFENIKNPTDLDWYELQKVPMLIHFPKDQYKGINSEYSGQIDLYPTIANMFNLPQNYMLGTDLFASKNRNVIFRNGSFTDGNVFYVSWTNTYYDIKTGS | failed
YRYDEQLNLCLERLSSGKDKNKSVLQNKYVRCSVRAEVRHLRRVLCHRLMLNPQHVQLLFDNEVLPDHMTMKQIWLSRWFGKPSPLLLQYS | failed
YSGSQAPGGIQEIVAMSPELDTYSITKRVKEVLTDNNLGQRLFGESILGLTQGSVSDLLSRPKPWHKLSLKGREPFVRMQLWLNDPHNVEKLRDMKKL | not failed
YTEPQIDDTNDGIVFSELTHPLIADAVANDFSLSQNILLTGSNASGKSTFMKSIAINIILASAIQTVTASKFVYQPGIVFTSMANADDVLSGDSYFMAELKSIKRIVEIPDNQKIYCFIDEIFKGTNTTERIAASESVLSFLHEKSNFRVIAATHDIELAELLKQRYENYHFNEVIENNNIHFDYKIKPGKANTRNAIELLKITSFPAKIYERAKDNVSN | failed
